As usually defined, the Kd is the equilibrium constant for the complex coming apart.

The values that follow come from publication PMC2817469.

Series [1] addresses T1, Dna2 E675A (nuclease-defective) (UniProt P38859 1-1522, E675A). In words: EMSA. In general terms: A gel shift assay detects complexes by their altered migration in electrophoresis.
In series [2] the target is T1, Dna2 E675A (nuclease-defective). As to the kind of experiment: competition.
The target is the same in series [3]. In words: competition. The source holds these as a separate data set.
Series [4] shares this target. As to the kind of experiment: DNase I footprinting.

T1 sequence (P38859 whole entry E675A): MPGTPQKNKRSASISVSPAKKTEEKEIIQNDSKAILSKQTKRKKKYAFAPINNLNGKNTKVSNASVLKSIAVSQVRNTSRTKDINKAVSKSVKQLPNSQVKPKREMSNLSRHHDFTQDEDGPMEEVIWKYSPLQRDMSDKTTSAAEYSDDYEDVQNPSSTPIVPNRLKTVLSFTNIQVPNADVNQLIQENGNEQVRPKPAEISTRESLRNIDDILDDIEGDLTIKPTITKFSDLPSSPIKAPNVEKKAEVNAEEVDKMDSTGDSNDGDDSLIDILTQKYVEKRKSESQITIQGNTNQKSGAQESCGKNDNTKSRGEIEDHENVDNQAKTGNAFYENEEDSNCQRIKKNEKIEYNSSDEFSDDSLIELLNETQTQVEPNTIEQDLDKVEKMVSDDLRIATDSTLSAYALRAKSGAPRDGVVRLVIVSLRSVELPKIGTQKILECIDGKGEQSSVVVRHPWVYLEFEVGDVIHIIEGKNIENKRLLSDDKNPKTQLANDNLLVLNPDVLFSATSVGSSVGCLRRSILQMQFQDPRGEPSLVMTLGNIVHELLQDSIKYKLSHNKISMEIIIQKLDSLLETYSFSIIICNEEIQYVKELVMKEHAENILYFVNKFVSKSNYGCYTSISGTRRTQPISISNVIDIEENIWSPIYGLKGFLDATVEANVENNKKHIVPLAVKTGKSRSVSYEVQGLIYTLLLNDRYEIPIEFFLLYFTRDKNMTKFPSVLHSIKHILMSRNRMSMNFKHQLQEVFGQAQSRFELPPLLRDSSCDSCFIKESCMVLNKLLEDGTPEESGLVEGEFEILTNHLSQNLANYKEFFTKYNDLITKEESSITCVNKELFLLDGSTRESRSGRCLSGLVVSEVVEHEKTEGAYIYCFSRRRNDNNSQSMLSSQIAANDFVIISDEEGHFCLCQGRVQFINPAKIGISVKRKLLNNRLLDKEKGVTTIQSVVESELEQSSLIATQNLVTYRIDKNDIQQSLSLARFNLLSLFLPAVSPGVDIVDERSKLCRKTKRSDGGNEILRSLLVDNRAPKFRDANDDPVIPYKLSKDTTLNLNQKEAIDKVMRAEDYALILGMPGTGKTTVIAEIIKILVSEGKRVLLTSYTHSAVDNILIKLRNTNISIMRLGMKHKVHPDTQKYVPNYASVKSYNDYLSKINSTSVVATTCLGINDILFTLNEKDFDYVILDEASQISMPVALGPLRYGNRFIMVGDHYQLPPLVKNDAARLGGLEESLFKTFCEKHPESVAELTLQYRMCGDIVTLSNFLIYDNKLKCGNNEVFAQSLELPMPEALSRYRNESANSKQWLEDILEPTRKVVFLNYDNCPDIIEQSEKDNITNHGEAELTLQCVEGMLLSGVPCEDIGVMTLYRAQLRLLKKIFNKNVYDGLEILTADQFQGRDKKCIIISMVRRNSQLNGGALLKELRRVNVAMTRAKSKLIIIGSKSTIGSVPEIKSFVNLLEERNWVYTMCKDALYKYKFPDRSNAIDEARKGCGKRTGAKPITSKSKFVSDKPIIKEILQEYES

B1: Gap (20-nt) (structured_DNA)
DNA: ACATGATGCATCGTTAGGCGATTCCGCCTAACGATGCATCATGTTTTTTTTTTTTTTTTTTTTTCGCGAACCCTATTTAGGGTTCGCG
For B1, the dissociation constant (Kd) in series [1] was determined as 6.7 nM.

B2: ssDNA 30-nt (ssDNA)
DNA: TTCACGAGATTTACTTATTTCACTGCGGCT
As to B2, in series [2], the binding result is “binds”.

B3: Double-Flap (structured_DNA)
DNA: TTCACGAGATTTACTTATTTCACTGCGGCTACATGATGCATCGTTAGGCGATTCCGCCTAACGATGCATCATGTCGCGAACCCTATTTAGGGTTCGCGT
Regarding B3, binding in series [1] was put at a Kd of 7 nM.

B4: Flap (30-nt 5'-flap) (structured_DNA)
DNA: TTCACGAGATTTACTTATTTCACTGCGGCTACATGATGCATCGTTAGGCGATTCCGCCTAACGATGCATCATGTCGCGAACCCTATTTAGGGTTCGCG
B4 showed a Kd in series [1] of 8.4 nM.

B5: Biotin-Flap, streptavidin-blocked (structured_DNA)
DNA: TTCACGAGATTTACTTATTTCACTGCGGCTACATGATGCATCGTTAGGCGATTCCGCCTAACGATGCATCATGTCGCGAACCCTATTTAGGGTTCGCG
modifications: 5' biotin
Turning to B5, the binding result in series [3] is reported as “binds”.

B6: Nick (structured_DNA)
DNA: ACATGATGCATCGTTAGGCGATTCCGCCTAACGATGCATCATGTCGCGAACCCTATTTAGGGTTCGCG
With B6, in series [4], the binding result is “binds”.

B7: 5'-Tail (structured_DNA)
DNA: TTCACGAGATTTACTTATTTCACTGCGGCTACATGATGCATCGTTAGGCGATTCCGCCTAACGATGCATCATGT
In turn, B7 yielded a dissociation constant (Kd) in series [1] of 8.5 nM.

B8: Fork (structured_DNA)
DNA: TTCACGAGATTTACTTATTTCACTGCGGCTACATGATGCATCGTTAGGCGATTCCGCCTAACGATGCATCATGTTGTTACCCTTTGA
Regarding B8, in series [1], the affinity, expressed as Kd, was 9.2 nM.
